Paper PMC10418624, “Expression and Characterization of Two α-L-Arabinofuranosidases from Talaromyces amestolkiae: Role of These Enzymes in Biomass Valorization” (International Journal of Molecular Sciences, 2023)

Key:
[1] = tested on: T1, O=[N+]([O-])c1ccc(O[C@@H]2O[C@@H](CO)[C@H](O)[C@H]2O)cc1; assay: purified protein; format: biochemical, Talaromyces amestolkiae; conditions: standard reaction: 50 mM sodium acetate pH 5, 50 °C, 0.1% BSA, substrate 0.0625-16 mM
T1 construct: secreted from Pichia pastoris GS115 (pPIC9), N-glycosylated, about 37 kDa on SDS-PAGE; forward primer encodes LPTDETA after the EcoRI site, reverse primer encodes C-terminal PGLLTHK

[2] = tested on: T2, O=[N+]([O-])c1ccc(O[C@@H]2O[C@@H](CO)[C@H](O)[C@H]2O)cc1; assay: purified protein; format: biochemical, Talaromyces amestolkiae; conditions: standard reaction: 50 mM sodium acetate pH 5, 50 °C, 0.1% BSA, substrate 0.0625-16 mM
T2 construct: mature form without 18-residue signal peptide (54 bp), gene 1223 bp with one intron, 368 residues, 39 kDa, N-terminal CBM1, Ser/Thr-rich linker and GH62 domain; secreted from Pichia pastoris GS115 (pPIC9), N-glycosylated, about 50 kDa on SDS-PAGE; forward primer encodes QASLYGQ after the EcoRI site, reverse primer encodes C-terminal LLTLSK

Chain of ARA-1 (Talaromyces amestolkiae) (chain, as listed by the source): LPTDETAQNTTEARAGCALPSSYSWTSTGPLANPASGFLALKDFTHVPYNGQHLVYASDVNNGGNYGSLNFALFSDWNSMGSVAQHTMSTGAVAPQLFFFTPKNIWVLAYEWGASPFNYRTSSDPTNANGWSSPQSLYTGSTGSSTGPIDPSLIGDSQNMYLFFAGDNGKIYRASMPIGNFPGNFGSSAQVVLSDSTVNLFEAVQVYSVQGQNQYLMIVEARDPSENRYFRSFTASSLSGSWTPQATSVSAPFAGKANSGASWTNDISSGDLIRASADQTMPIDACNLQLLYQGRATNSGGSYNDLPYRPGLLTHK
Chain of ARA-2 (Talaromyces amestolkiae) (chain, as listed by the source): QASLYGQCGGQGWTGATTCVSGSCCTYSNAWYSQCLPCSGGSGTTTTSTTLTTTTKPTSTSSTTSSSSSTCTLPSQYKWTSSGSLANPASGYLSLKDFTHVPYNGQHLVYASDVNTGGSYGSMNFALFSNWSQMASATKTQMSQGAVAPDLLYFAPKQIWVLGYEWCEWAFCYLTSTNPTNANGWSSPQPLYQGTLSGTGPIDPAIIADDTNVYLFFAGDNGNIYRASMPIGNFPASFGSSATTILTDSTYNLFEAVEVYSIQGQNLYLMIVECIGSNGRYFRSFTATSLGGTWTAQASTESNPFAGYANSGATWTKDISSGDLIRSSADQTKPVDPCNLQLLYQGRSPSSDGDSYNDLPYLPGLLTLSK

Substance | Km [1] | kcat [1] | kcat/Km [1] | Km [2] | kcat [2] | kcat/Km [2]
ARA-1 (Talaromyces amestolkiae) | 8.97 ± 0.06 mM | 0.05 ± 0.001 s⁻¹ | 5 ± 0.4 M⁻¹ s⁻¹ | – | – | –
ARA-2 (Talaromyces amestolkiae) | – | – | – | 1.48 ± 0.08 mM | 0.41 ± 0.01 s⁻¹ | 280 ± 10 M⁻¹ s⁻¹
